Assay results taken from paper PMC3312907, “Monoclonal Antibodies to Meningococcal Factor H Binding Protein with Overlapping Epitopes and Discordant Functional Activity” (PLoS ONE, 2012).

Legend:
[1] = molecular target: murine anti-fHbp mAb JAR 1 (IgG3); test: ELISA; conditions: mAb at 10 µg/ml (highest point of titration); wells coated with 2 µg/ml of wild-type or mutant fHbp; parent: est. 2.4; read off a plot
[2] = molecular target: murine anti-fHbp mAb JAR 5 (IgG2b); test: ELISA; conditions: mAb at 10 µg/ml (highest point of titration); wells coated with 2 µg/ml of wild-type or mutant fHbp; parent: est. 3.7; read off a plot
[3] = molecular target: murine anti-fHbp mAb502 (IgG2a); test: ELISA; conditions: wells coated with 2 µg/ml of wild-type or mutant fHbp, read off a plot
[4] = molecular target: recombinant factor H binding protein (fHbp) ID 1 (Neisseria meningitidis (strain MC58)) (UniProt Q9JXV4); test: ELISA; competitive inhibition: wells coated with 2 µg/ml fHbp ID 1; dilutions of the first mAb together with 1 µg/ml of the second mAb, 37°C, 2 h; detection with subclass-specific (IgG3 or IgG2a) secondary antibody
[5] = molecular target: T1, fHbp ID 1 on live bacteria of N. meningitidis group B strain H44/76 (Neisseria meningitidis (endogenous in …, UniProt Q9JXV4)); test: flow cytometry on cells; as a6, for the anti-fHbp mAb added at 2 or 50 µg/ml for 30 min at room temperature to live bacteria; read-out is bound fH; conditions: one partner purified
T1 construct: source: endogenous, live bacteria of group B strain H44/76

[6] = molecular target: T2, recombinant factor H binding protein (fHbp) ID 1 (Neisseria meningitidis (strain MC58), UniProt Q9JXV4); test: ELISA; wells coated with 2 µg/ml recombinant fHbp in PBS overnight at 4°C; dilutions of mAb overnight at 4°C; bound mAb detected with anti-mouse or anti-human IgG (Fc specific)-alkaline phosphatase (legend of Figure 5: anti-human kappa light chain); conditions: both partners purified
T2 construct: also called wild-type (WT) fHbp ID 1; rfHbp; source: E. coli (pET21b), purified (Ni-NTA agarose)

[7] = mAb at 10 µg/ml (highest point of titration), parent: est. 3.6

Row | Molecule | response [1] [OD 405nm] | response [2] [OD 405nm] | response [3, 7] [OD 405nm] | percent inhibition of mAb502 binding to fHbp [4] [%] | response ([3]; mAb at about 0.08 µg/ml (point read from the log x axis, est.), parent: est. 3.7) [OD 405nm] | binding result [5] | binding result [6]
1 | recombinant factor H binding protein (fHbp) ID 1 (from UniProt Q9JXV4) K143A | 1.3 | 3.8 | 3.6 |  |  |  | 
2 | recombinant factor H binding protein (fHbp) ID 1 (from UniProt Q9JXV4) R204A | 0.15 | 3.4 | 0.3 |  |  |  | 
3 | recombinant factor H binding protein (fHbp) ID 1 (from UniProt Q9JXV4) R204H | 2.2 | 3.6 | 0.3 |  |  |  | 
4 | murine anti-fHbp mAb JAR 1 (IgG3) (antibody) |  |  |  | > 90 |  |  | 
5 | recombinant factor H binding protein (fHbp) ID 1 (from UniProt Q9JXV4) D142A | 2.3 | 3.6 | 3.5 |  | 1.4 |  | 
6 | chimeric human IgG1 mouse anti-fHbp JAR 1 mAb (antibody, V domains shown, also called chimeric JAR 1; chimeric human IgG1 JAR 1; source: transfected CHO cells, serum-free medium, purified from supernatant (HiTrap protein G)) VH: QVQLQQPGTELVMPGASVKLSCKASGYTFTNYWMHWVKQRPGQGLEWIGEIDPSDNYTKYNQKFKGKATLTVHTSSTTAYIQLSSLTSEDSAVYYCARGEVTTYLDYWGQGTTLIVSS VL: DILMTQSPSSLTVSAGEKVTMSCKSSQSLLASDNQNNFLAWHQQKPGQSPKMLIIWASTRVSGVPDRFIGSGSGTDFTLTINSVQAEDLAVYYCQQSYSAPLTFGAGTKLELQ |  |  |  |  |  | binds | binds
7 | chimeric human IgG1 mouse anti-fHbp mAb502 (antibody, V domains shown, also called chimeric mAb502; chimeric human IgG1 mAb502; source: transfected CHO cells, serum-free medium, purified from supernatant (HiTrap protein G)) VH: EVQLQESGPGLAKPSQTLSLTCSVTGYSITSDFWNWIRKFPGNKLEYMGYISYSGSTDYNPSLKSRISITRDTSKNQYYLQLNSVTAEDTATYYCARYFGSSYAMDHWGQGTSVTVSS VL: DIQMTQSPASLSASVGETVTITCRASGNIHNYLAWYQQKQGKSPQLLVYTAKTLAEGVPSRFSGSGSGTQFSLKINSLQPEDFGSYYCQHFWSTPWTFGGGTKLEIK |  |  |  |  |  | binds | binds
